T1: Notch2 EGF domains 6-13 (human, UniProt Q04721 221-530)
T1 chain: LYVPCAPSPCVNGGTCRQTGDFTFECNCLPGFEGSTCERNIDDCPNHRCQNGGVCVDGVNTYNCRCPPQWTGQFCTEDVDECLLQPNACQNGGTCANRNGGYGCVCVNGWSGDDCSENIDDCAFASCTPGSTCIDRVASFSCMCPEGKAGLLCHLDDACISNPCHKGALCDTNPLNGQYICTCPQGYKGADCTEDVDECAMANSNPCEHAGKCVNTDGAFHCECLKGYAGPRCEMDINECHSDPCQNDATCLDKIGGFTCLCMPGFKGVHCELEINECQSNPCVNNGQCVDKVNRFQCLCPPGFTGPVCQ

T2: Notch1 EGF domains 6-13 (human, UniProt P46531 218-526)
T2 chain: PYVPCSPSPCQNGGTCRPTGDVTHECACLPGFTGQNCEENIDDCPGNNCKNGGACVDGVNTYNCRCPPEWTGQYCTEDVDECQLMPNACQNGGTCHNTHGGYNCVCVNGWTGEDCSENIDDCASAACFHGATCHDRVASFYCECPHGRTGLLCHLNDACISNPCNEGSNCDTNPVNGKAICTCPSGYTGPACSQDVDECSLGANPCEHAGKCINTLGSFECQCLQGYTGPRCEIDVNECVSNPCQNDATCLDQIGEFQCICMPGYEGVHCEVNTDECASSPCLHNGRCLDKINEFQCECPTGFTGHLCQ

T3: Notch 3 EGF domains 5-12 (human, UniProt Q9UM47 197-505)
T3 chain: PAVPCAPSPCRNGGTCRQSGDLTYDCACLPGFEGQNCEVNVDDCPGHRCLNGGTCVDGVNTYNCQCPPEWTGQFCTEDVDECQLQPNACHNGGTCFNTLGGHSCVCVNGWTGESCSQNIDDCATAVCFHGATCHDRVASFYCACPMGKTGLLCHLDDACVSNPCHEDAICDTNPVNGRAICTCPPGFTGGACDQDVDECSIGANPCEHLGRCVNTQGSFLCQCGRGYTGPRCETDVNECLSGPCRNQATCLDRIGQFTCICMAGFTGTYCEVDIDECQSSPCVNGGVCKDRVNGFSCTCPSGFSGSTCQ


Tests used:
hDLL4 site2 = test: SPR; N-EGF3
DLL4.v3 = test: SPR; N-EGF3
Notch2 EGF domains 6-13 [1] = molecular target: T1, Notch2 EGF domains 6-13; test: SPR
Notch1 EGF domains 6-13 [2] = molecular target: T2, Notch1 EGF domains 6-13; test: SPR
Notch 3 EGF domains 5-12 [3] = molecular target: T3, Notch 3 EGF domains 5-12; test: SPR
Notch2 EGF domains 6-13 [4] = molecular target: T1, Notch2 EGF domains 6-13; test: SPR; N-EGF3
Notch1 EGF domains 6-13 [5] = molecular target: T2, Notch1 EGF domains 6-13; test: SPR; N-EGF3
Notch 3 EGF domains 5-12 [6] = molecular target: T3, Notch 3 EGF domains 5-12; test: SPR; N-EGF3

Kd (hDLL4 site2)	Kd (DLL4.v3)	Kd (Notch2 EGF domains 6-13 [1])	Kd (Notch1 EGF domains 6-13 [2])	Kd (Notch 3 EGF domains 5-12 [3])	Kd (Notch2 EGF domains 6-13 [4])	Kd (Notch1 EGF domains 6-13 [5])	Kd (Notch 3 EGF domains 5-12 [6])	Binder
1.65 µM	0.0273 µM	–	–	–	–	–	–	hNotch 3 (EGF6-13) (receptor) PAVPCAPSPCRNGGTCRQSGDLTYDCACLPGFEGQNCEVNVDDCPGHRCLNGGTCVDGVNTYNCQCPPEWTGQFCTEDVDECQLQPNACHNGGTCFNTLGGHSCVCVNGWTGESCSQNIDDCATAVCFHGATCHDRVASFYCACPMGKTGLLCHLDDACVSNPCHEDAICDTNPVNGRAICTCPPGFTGGACDQDVDECSIGANPCEHLGRCVNTQGSFLCQCGRGYTGPRCETDVNECLSGPCRNQATCLDRIGQFTCICMAGFTGTYCEVDIDECQSSPCVNGGVCKDRVNGFSCTCPSGFSGSTCQ
0.471 µM	0.02 µM	–	–	–	–	–	–	hNotch1 (EGF6-13) (receptor) PYVPCSPSPCQNGGTCRPTGDVTHECACLPGFTGQNCEENIDDCPGNNCKNGGACVDGVNTYNCRCPPEWTGQYCTEDVDECQLMPNACQNGGTCHNTHGGYNCVCVNGWTGEDCSENIDDCASAACFHGATCHDRVASFYCECPHGRTGLLCHLNDACISNPCNEGSNCDTNPVNGKAICTCPSGYTGPACSQDVDECSLGANPCEHAGKCINTLGSFECQCLQGYTGPRCEIDVNECVSNPCQNDATCLDQIGEFQCICMPGYEGVHCEVNTDECASSPCLHNGRCLDKINEFQCECPTGFTGHLCQ
–	–	4.99 µM	4.04 µM	10.4 µM	35.7 µM	17.9 µM	22.2 µM	wildtype (WT) human DLL4 (ligand) SGVFQLQLQEFINERGVLASGRPCEPGCRTFFRVCLKHFQAVVSPGPCTFGTVSTPVLGTNSFAVRDDSSGGGRNPLQLPFNFTWPGTFSLIIEAWHAPGDDLRPEALPPDALISKIAIQGSLAVGQNWLLDEQTSTLTRLRYSYRVICSDNYYGDNCSRLCKKRNDHFGHYVCQPDGNLSCLPGWTGEYCQQPICLSGCHEQNGYCSKPAECLCRPGWQGRLCNECIPHNGCRHGTCSTPWQCTCDEGWGGLFCDQDLNYCTHHSPCKNGATCSNSGQRSYTCTCRPGYTGVDCE
3.25 µM	0.0314 µM	–	–	–	–	–	–	hNotch2 (EGF6-13) (receptor) LYVPCAPSPCVNGGTCRQTGDFTFECNCLPGFEGSTCERNIDDCPNHRCQNGGVCVDGVNTYNCRCPPQWTGQFCTEDVDECLLQPNACQNGGTCANRNGGYGCVCVNGWSGDDCSENIDDCAFASCTPGSTCIDRVASFSCMCPEGKAGLLCHLDDACISNPCHKGALCDTNPLNGQYICTCPQGYKGADCTEDVDECAMANSNPCEHAGKCVNTDGAFHCECLKGYAGPRCEMDINECHSDPCQNDATCLDKIGGFTCLCMPGFKGVHCELEINECQSNPCVNNGQCVDKVNRFQCLCPPGFTGPVCQ

Reference: US20220348617A1 (published 2022)
